Consider three substances from patent publication US20050256058.

Data set [1] deals with T1, PhPr-Leu-ALys-CH═CH-COOEt.
T1 sequence: LK

Data set [2] deals with T2, Cbz-Ala-Ala-AAsn-CH═CH-CON(Bzl)2.
T2 sequence: AAN

For data set [3], the system named is T3, Cbz-Ala-Ala-AAsn-CH═CH-CON(CH3)Bzl.
T3 sequence: AAN

Data set [4] relates to T4, PhPr-Leu-AOrn-CH═CH-COOEt.
T4 sequence: LX

Data set [5] deals with T5, Cbz-Ala-Ala-AAsn-CH═CH-CO-indoline.
T5 sequence: AAN

For data set [6], the system named is T6, Cbz-Ala-Ala-AAsn-CH═CH-CONHCH2CH2Ph.
T6 sequence: AAN

For data set [7], the system named is T7, Cbz-Ala-Ala-AAsn-CH═CH-COOEt.
T7 sequence: AAN

Take Cathepsin B: the kobs/[I] in data set [1] was 9 M⁻¹ s⁻¹; in data set [2] it was “NI”; in data set [3], “NI”; in data set [4], 3 M⁻¹ s⁻¹; in data set [5], “NI”; in data set [6] it was “NI”. Besides, in data set [7], the kobs/[I] was found to be 1 M⁻¹ s⁻¹.
In the case of Trypsin, the kobs/[I] in data set [1] was 17 M⁻¹ s⁻¹; in data set [4] it was “NI”.
Regarding Gingipain K, the kobs/[I] in data set [2] is 2 M⁻¹ s⁻¹; in data set [3] it was 1 M⁻¹ s⁻¹; in data set [5], 1 M⁻¹ s⁻¹; in data set [6] it was “NI”; in data set [7], 6 M⁻¹ s⁻¹.
